In publication PMC7456325:

Target: T. suis B ΔC26 (Trichuris suis BCL-2-like protein B, C-terminal truncation) (Trichuris suis)
Experiment: MST; Monolith NT.115; protein labelled with NHS RED, unlabelled synthetic peptide diluted in phosphate-buffered saline; 30 min incubation; 25 °C; 40% LED and 40% MST power; three independent experiments, single binding model

PILPEVNKTALCMRAMGEVFEDRYKT [T. suis protein B BH3 peptide]
Kd: > 50 µM

SVRAPIRLCDAMFLMCDLFERKFHDR [T. suis protein A BH3 peptide]
Kd: > 50 µM
